The values that follow come from the supplement of paper PMC11246515.

A short description of this series: total protein half-life in vivo (active degradation + dilution); higher = more stable protein.
The mark [1] stands for this setting: E. coli NCM3722 delta-clpP delta-lon delta-hslV, growth: N-lim chemostat, doubling time 6 h.
Setting [2] is: E. coli NCM3722 delta-clpP, growth: N-lim chemostat, doubling time 6 h.
Setting [3] is: E. coli NCM3722 delta-hslV, growth: N-lim chemostat, doubling time 6 h.
[4] abbreviates: E. coli NCM3722 delta-lon, growth: N-lim chemostat, doubling time 6 h.
Setting [5] is: E. coli NCM3722 delta-smpB, growth: N-lim chemostat, doubling time 6 h.
Where [6] appears, read: wild type E. coli NCM3722, growth: C-lim chemostat, doubling time 3 h.
Where [7] appears, read: wild type E. coli NCM3722, growth: C-lim chemostat, doubling time 6 h.
The mark [8] stands for this setting: wild type E. coli NCM3722, growth: C-lim chemostat, doubling time 12 h.
Where [9] appears, read: wild type E. coli NCM3722, growth: N-lim chemostat, doubling time 6 h.
The mark [10] stands for this setting: wild type E. coli NCM3722, growth: N-lim chemostat, doubling time 12 h.
Where [11] appears, read: wild type E. coli NCM3722, growth: P-lim chemostat, doubling time 6 h.
[12] abbreviates: wild type E. coli NCM3722, growth: P-lim chemostat, doubling time 12 h.

± gives the standard deviation of the averaged measurements.

Turning to “MTTILKHLPVGQRIGIAFSGGLDTSAALLWMRQKGAVPYAYTANLGQPDEEDYDAIPRRAMEYGAENARLIDCRKQLVAEGIAAIQCGAFHNTTGGLTYFNTTPLGRAVTGTMLVAAMKEDGVNIWGDGSTYKGNDIERFYRYGLLTNAELQIYKPWLDTDFIDELGGRHEMSEFMIACGFDYKMSVEKAYSTDSNMLGATHEAKDLEYLNSSVKIVNPIMGVKFWDESVKIPAEEVTVRFEQGHPVALNGKTFSDDVEMMLEANRIGGRHGLGMSDQIENRIIEAKSRGIYEAPGMALLHIAYERLLTGIHNEDTIEQYHAHGRQLGRLLYQGRWFDSQALMLRDSLQRWVASQITGEVTLELRRGNDYSILNTVSENLTYKPERLTMEKGDSVFSPDDRIGQLTMRNLDITDTREKLFGYAKTGLLSSSAASGVPQVENLENKGQ [P0A6E4]”, the “total protein half-life in vivo” value by setting is: under setting [1], 4.11 ± 0.6 h; under setting [2], 3.3 ± 0.15 h; under setting [3], 3.2 ± 0.23 h; under setting [4], 3.89 ± 0.34 h; under setting [5], 3.26 ± 0.15 h; under setting [6], 3.17 ± 0.06 h. For the same sequence, the “total protein half-life in vivo” value amounted to 5.27 ± 0.081 h under setting [7]; 9.91 ± 0.69 h under setting [8]; 3.39 ± 0.12 h under setting [9]; 4.82 ± 0.071 h under setting [10]; 5.69 ± 0.15 h under setting [11]; 10.7 ± 0.7 h under setting [12].

Take “MTTQYGFFIDSSRCTGCKTCELACKDFKDLGPEVSFRRIYEYAGGDWQEDNGVWHQNVFAYYLSISCNHCDDPACTKVCPSGAMHKREDGFVVVDEDVCIGCRYCHMACPYGAPQYNAEKGHMTKCDGCYSRVAEGKQPICVESCPLRALEFGPIEELRQKHGTLAAVAPLPRAHFTKPNIVIKPNANSRPTGDTTGYLANPEEV [P0AAJ1]”: the “total protein half-life in vivo” value under setting [1] amounted to 4.03 h.

For “MKKRKTVKKRYVIALVIVIAGLITLWRILNAPVPTYQTLIVRPGDLQQSVLATGKLDALRKVDVGAQVSGQLKTLSVAIGDKVKKDQLLGVIDPEQAENQIKEVEATLMELRAQRQQAEAELKLARVTYSRQQRLAQTKAVSQQDLDTAATEMAVKQAQIGTIDAQIKRNQASLDTAKTNLDYTRIVAPMAGEVTQITTLQGQTVIAAQQAPNILTLADMSAMLVKAQVSEADVIHLKPGQKAWFTVLGDPLTRYEGQIKDVLPTPEKVNDAIFYYARFEVPNPNGLLRLDMTAQVHIQLTDVKNVLTIPLSALGDPVGDNRYKVKLLRNGETREREVTIGARNDTDVEIVKGLEAGDEVVIGEAKPGAAQ”, the “total protein half-life in vivo” value came out at 6.09 ± 0.067 h under setting [1]; 6.45 ± 0.1 h under setting [4]; 6.19 ± 0.26 h under setting [5]; 3.07 ± 0.068 h under setting [6]; 6.04 ± 0.16 h under setting [7]; 12.54 ± 0.11 h under setting [8]. In addition, the “total protein half-life in vivo” value under setting [9] was determined as 6.37 ± 0.067 h, the “total protein half-life in vivo” value under setting [10] amounted to 13.5 ± 1.4 h, the “total protein half-life in vivo” value under setting [11] is 5.83 ± 0.37 h and the “total protein half-life in vivo” value under setting [12] is 12 ± 0.15 h.

Consider “MQQRRPVRRALLSVSDKAGIVEFAQALSARGVELLSTGGTARLLAEKGLPVTEVSDYTGFPEMMDGRVKTLHPKVHGGILGRRGQDDAIMEEHQIQPIDMVVVNLYPFAQTVAREGCSLEDAVENIDIGGPTMVRSAAKNHKDVAIVVKSSDYDAIIKEMDDNEGSLTLATRFDLAIKAFEHTAAYDSMIANYFGSMVPAYHGESKEAAGRFPRTLNLNFIKKLDMRYGENSHQQAAFYIEENVKEASVATATQVQGKALSYNNIADTDAALECVKEFAEPACVIVKHANPCGVAIGNSILDAYDRAYKTDPTSAFGGIIAFNRELDAETAQAIISRQFVEVIIAPSASEEALKITAAKQNVRVLTCGQWGERVPGLDFKRVNGGLLVQDRDLGMVGAEELRVVTKRQPSEQELRDALFCWKVAKFVKSNAIVYAKNNMTIGIGAGQMSRVYSAKIAGIKAADEGLEVKGSSMASDAFFPFRDGIDAAAAAGVTCVIQPGGSIRDDEVIAAADEHGIAMLFTDMRHFRH”, for which the “total protein half-life in vivo” value under setting [1] amounted to 5.11 ± 0.42 h; the “total protein half-life in vivo” value under setting [2] worked out at 4.51 ± 0.51 h; the “total protein half-life in vivo” value under setting [3] was found to be 4.73 ± 0.56 h; the “total protein half-life in vivo” value under setting [4] is 4.99 ± 0.032 h; the “total protein half-life in vivo” value under setting [5] was found to be 4.41 ± 0.28 h; the “total protein half-life in vivo” value under setting [6] is 3.19 ± 0.3 h. Besides, the “total protein half-life in vivo” value reads like this: under setting [7], 5.88 ± 0.38 h; under setting [8], 9.3 ± 0.86 h; under setting [9], 4.36 ± 0.22 h; under setting [10], 6.9 ± 0.074 h; under setting [11], 5.961 ± 0.037 h; under setting [12], 11.9 ± 0.6 h.

“MALLQISEPGLSAAPHQRRLAAGIDLGTTNSLVATVRSGQAETLADHEGRHLLPSVVHYQQQGHSVGYDARTNAALDTANTISSVKRLMGRSLADIQQRYPHLPYQFQASENGLPMIETAAGLLNPVRVSADILKALAARATEALAGELDGVVITVPAYFDDAQRQGTKDAARLAGLHVLRLLNEPTAAAIAYGLDSGQEGVIAVYDLGGGTFDISILRLSRGVFEVLATGGDSALGGDDFDHLLADYIREQAGIPDRSDNRVQRELLDAAIAAKIALSDADSVTVNVAGWQGEISREQFNELIAPLVKRTLLACRRALKDAGVEADEVLEVVMVGGSTRVPLVRERVGEFFGRPPLTSIDPDKVVAIGAAIQADILVGNKPDSEMLLLDVIPLSLGLETMGGLVEKVIPRNTTIPVARAQDFTTFKDGQTAMSIHVMQGERELVQDCRSLARFALRGIPALPAGGAHIRVTFQVDADGLLSVTAMEKSTGVEASIQVKPSYGLTDSEIASMIKDSMSYAEQDVKARMLAEQKVEAARVLESLHGALAADAALLSAAERQVIDDAAAHLSEVAQGDDVDAIEQAIKNVDKQTQDFAARRMDQSVRRALKGHSVDEV [P0A6Z1]”: the “total protein half-life in vivo” value was found to be 5.04 ± 0.78 h under setting [1]; 4.05 ± 0.14 h under setting [2]; 2.65 ± 0.14 h under setting [3]; 3.22 ± 0.24 h under setting [4]; 2.53 ± 0.028 h under setting [5]; 2.7 ± 0.2 h under setting [6]. The “total protein half-life in vivo” value under setting [7] was found to be 4.48 ± 0.47 h; the “total protein half-life in vivo” value under setting [8] was 7.07 ± 1.1 h; the “total protein half-life in vivo” value under setting [9] worked out at 2.857 ± 0.016 h; the “total protein half-life in vivo” value under setting [10] worked out at 3.54 ± 0.12 h; the “total protein half-life in vivo” value under setting [11] was determined as 4.05 ± 0.31 h; the “total protein half-life in vivo” value under setting [12] was 6.96 ± 0.068 h.

Take “MRYPVDVYTGKIQAYPEGKPSAIAKIQVDGELMLTELGLEGDEQAEKKVHGGPDRALCHYPREHYLYWAREFPEQAELFVAPAFGENLSTDGLTESNVYMGDIFRWGEALIQVSQPRSPCYKLNYHFDISDIAQLMQNTGKVGWLYSVIAPGKVSADAPLELVSRVSDVTVQEAAAIAWHMPFDDDQYHRLLSAAGLSKSWTRTMQKRRLSGKIEDFSRRLWGK”: the “total protein half-life in vivo” value is 4.688 ± 0.014 h under setting [1]; 4.89 ± 0.61 h under setting [2]; 4.614 ± 0.023 h under setting [3]; 5.77 ± 0.072 h under setting [4]; 4.46 ± 0.23 h under setting [5]; 3.04 ± 0.29 h under setting [6]. Moreover, the “total protein half-life in vivo” value stood at 6.38 ± 1.3 h under setting [7]; 9.06 ± 0.23 h under setting [8]; 4.7 ± 0.19 h under setting [9]; 7.96 ± 1.1 h under setting [10]; 5.64 ± 0.12 h under setting [11]; 12 ± 0.28 h under setting [12].

In the case of “MKLVTVIIKPFKLEDVREALSSIGIQGLTVTEVKGFGRQKGHAELYRGAEYSVNFLPKVKIDVAIADDQLDEVIDIVSKAAYTGKIGDGKIFVAELQRVIRIRTGEADEAAL [P0AC55]”, the “total protein half-life in vivo” value is, setting by setting: under setting [2], 5.2 ± 0.45 h; under setting [3], 5.45 ± 0.14 h; under setting [4], 5.044 ± 0.034 h; under setting [5], 4.83 ± 0.068 h; under setting [6], more than 4 h; under setting [7], 7.02 h. Also, the “total protein half-life in vivo” value runs as follows: under setting [9], 5.43 ± 0.42 h; under setting [10], 8.82 ± 0.72 h; under setting [12], 13.6 ± 2.6 h.

For the sequence “MASSNLIKQLQERGLVAQVTDEEALAERLAQGPIALYCGFDPTADSLHLGHLVPLLCLKRFQQAGHKPVALVGGATGLIGDPSFKAAERKLNTEETVQEWVDKIRKQVAPFLDFDCGENSAIAANNYDWFGNMNVLTFLRDIGKHFSVNQMINKEAVKQRLNREDQGISFTEFSYNLLQGYDFACLNKQYGVVLQIGGSDQWGNITSGIDLTRRLHQNQVFGLTVPLITKADGTKFGKTEGGAVWLDPKKTSPYKFYQFWINTADADVYRFLKFFTFMSIEEINALEEEDKNSGKAPRAQYVLAEQVTRLVHGEEGLQAAKRITECLFSGSLSALSEADFEQLAQDGVPMVEMEKGADLMQALVDSELQPSRGQARKTIASNAITINGEKQSDPEYFFKEEDRLFGRFTLLRRGKKNYCLICWK [P0AGJ9]”, the “total protein half-life in vivo” value came out at 5.31 ± 0.33 h under setting [1]; 5.55 ± 0.44 h under setting [2]; 5.61 ± 0.41 h under setting [3]; 5.87 ± 0.23 h under setting [4]; 5.58 ± 0.69 h under setting [5]; 3.11 ± 0.094 h under setting [6]. In addition, the “total protein half-life in vivo” value reads like this: under setting [7], 6.32 ± 0.36 h; under setting [9], 5.51 ± 0.065 h; under setting [10], 10.5 ± 0.76 h; under setting [11], 6.271 ± 0.031 h; under setting [12], 12.2 ± 0.76 h.
